Source: publication PMC8616066

Assays:
[1] = target: fluorescent tagged HER2 (human) (UniProt P04626); assay: MST; Monolith NT.115; fluorescent tagged HER2, titration of purified GST fusion proteins
[2] = target: eGFP-MUC4β_(ΔEGF2) (human); assay: MST; Monolith NT.115; native fluorescence of the eGFP fusion proteins followed in cell lysate, titration against recombinant HER2-Fc; triplicate with two distinct cell lysates (n = 6)

| Kd [1] [nM] | Kd [2] [nM] | Substance |
| --- | --- | --- |
| 242 | – | GST-MUC4_(EGF2) (domain or fragment) |
| 75 | – | GST-MUC4_(EGF1) (domain or fragment) |
| – | 97 | recombinant HER2-Fc (from UniProt P04626 23-652) (Fc fusion) |
